{"source": "paper PMC6005192", "molecular_target": "bacteriophage λ holin S105, allele S105τ94 (internal G2H6G2 tag) (bacteriophage λ)", "experiment": "cryo-EM structure", "data": [{"substance": "bacteriophage λ holin S105, allele S105τ94 (internal G2H6G2 tag) (natural protein)", "values": [{"measurement": "stoichiometry N", "value": 72}]}]}
